FireProtDB (doi:10.1021/bi012084+)

Conditions: Geobacillus stearothermophilus; pH 7.5; Thermal; DSC; KH2PO4/KOH 100 mM; reversible: no; whole UniProt chain shown

B1: Glyceraldehyde-3-phosphate dehydrogenase wild type, P00362 (protein)
chain: MAVKVGINGFGRIGRNVFRAALKNPDIEVVAVNDLTDANTLAHLLKYDSVHGRLDAEVSVNGNNLVVNGKEIIVKAERDPENLAWGEIGVDIVVESTGRFTKREDAAKHLEAGAKKVIISAPAKNEDITIVMGVNQDKYDPKAHHVISNASCTTNCLAPFAKVLHEQFGIVRGMMTTVHSYTNDQRILDLPHKDLRRARAAAESIIPTTTGAAKAVALVLPELKGKLNGMAMRVPTPNVSVVDLVAELEKEVTVEEVNAALKAAAEGELKGILAYSEEPLVSRDYNGSTVSSTIDALSTMVIDGKMVKVVSWYDNETGYSHRVVDLAAYIASKGL
unfolding enthalpy (calorimetric): 408 kcal/mol
